Measurements from patent US20220364069A1, “METHOD FOR THE PRODUCTION OF AN ENZYMATIC COMPOSITION COMPRISING A RECOMBINANT ENDOPEPTIDASE” (NEMYSIS LIMITED, priority 2019, published 2022).
“Also recorded” adds a separate entry of the source.

Tests used:
gliadin = assay: Digestion of whole gliadin monitored by RP-HPLC; format: biochemical, Triticum aestivum; conditions: pH 4, 37° C., 30 min digestion
Experimental: The ability of E40 to hydrolyze harmful peptides in whole gliadin proteins was assessed by HPLC analysis (FIG. 6). Gliadin was extracted from whole flour of Triticum aestivum (Sagittario cultivar) according to Mamone et al^4. Gliadin (1 mg) was dissolved in 1 ml of 0.1 M ammonium acetate pH 4 and incubated with E40 enzymes (enzyme:substrate, 1:20), at 37° C. for different time points (0, 15, 30, 60, 120, 240 minutes). The enzymatic hydrolysis was stopped by boiling samples for 5 minutes. Samples were lyophilized and stored at −40° C. until further chemical analysis.
SDS-PAGE was performed on a Tetra-cell Mini-PROTEAN system (Bio-Rad, Milan, Italy). Digested gliadin samples were dissolved in Laemli buffer (0.125 M Tris-HCl pH 6.8, 5% SDS, 20% glycerol, 0.02% bromophenol blue) and loaded onto precast 12% acrylamide gel (Bio-Rad). Electrophoresis was carried out under non-reducing conditions, omitting β-mercaptoethanol in the Laemli buffer. Protein bands were visualized with silver blue (Coomassie Brilliant Blue G-250) and digitalized using a LABScan scanner (Amersham Bioscience/GE Healthcare, Uppsala, Sweden). RP-HPLC was carried out on a RP-HPLC using an HP 1100 Agilent Technology modular system (Palo Alto, Calif., USA). […] Eluent A was 0.1% TFA (v/v) in Milli-Q water, eluent B was 0.1% TFA (v/v) in acetonitrile. […] The column effluent was monitored at 220 and 280 nm with an UV-Vis detector. […]

[1] = system: gliadin (QPQLPY sequence); assay: Gluten content of gliadin digests by Elisa-G12; format: biochemical, wheat
Experimental: Next it has been evaluated whether recombinant E40 enzymatic activity efficiently neutralizes: i) the capacity of gluten proteins to bind G12 antibodies, and ii) the stimulation of a T-cell-mediated immune response, measured by IFN-γ release. To this purpose, gliadin proteins were suspended in 1 ml of 0.1M ammonium acetate and digested with E40 alone, or with E40 co-incubated with the gastrointestinal proteases, pepsin and trypsin/chymotrypsin, at different pHs and time points, as detailed in Table 1.
All enzymes were added in w/w ratio 1:20 (enzyme:protein) and incubated at 37° C., at indicated pH and incubation time. E40/pepsin/chymotrypsin-digested gliadins were deamidated by tTGase (Sigma Aldrich), as previously described^4. Briefly, the enzymatic gliadin digests (500 μg/ml) were incubated with 2 U of guinea pig tTG (T-5398, Sigma, St. Louis, Mo., USA) at 37° C. for 2 hours in PBS with 1 mmol/L CaCl2.
To estimate the effect of E40 digestion on the immunological potential of wheat, gluten content of samples A-L was determined by monoclonal antibodies specific for QPQLPY sequence (Elisa-G12)^10.

gluten of bread = assay: In vitro oral-gastric digestion of bread, gluten by Elisa-R5 competitive; format: biochemical, T. aestivum
Experimental: In order to evaluate the efficiency of E40 enzyme as oral supplement to abolish the gluten intake in patients, in vitro oral-gastric digestion model was applied. Digestion step of bread (T. aestivum) was carried out under simulated physiological condition including oral mastication and presence of digestive gastric enzymes. Digestion time was selected according to the average time of chyme's transit in the gastric compartments. E40 enzyme preparation was added at beginning of the simulated gastric phase. The destruction of the T cell epitopes and toxic peptides was tested using monoclonal antibodies (Elisa-R5 competitive), according to the manufacturer's and to the AOAC guidelines.

pepsin = target: T1, pepsin (Sus scrofa, UniProt P00791); assay: Resistance of E40 to pepsin (suc-Ala-Ala-Pro-Phe-pNA cleavage); format: biochemical; conditions: pH 4, 4.5 and 5; protease 1:2 (w/w) versus E40; 110 minutes, 37° C.
T1 construct: purchased Sigma-Aldrich (Milan, Italy)
Experimental: The resistance of recombinant E40, obtained by the method of the invention, to the proteolytic activity of gastric (pepsin) and duodenal (trypsin) digestive proteases was further evaluated (FIG. 4), using suc-Ala-Ala-Pro-Phe-pNA as substrate. Aqueous solutions of E40 enzyme, alone or in combination with pepsin and/or trypsin (0.2 mg/ml E40, 0.1 mg/ml Pepsin or Trypsin), were diluted in citrate-phosphate buffer containing suc-Ala-Ala-Pro-Phe-pNA at pH 4, 4.5 and 5 for pepsin, and at pH 6 and 7 for trypsin. Final concentrations in reaction mix were: 200 μM substrate, 1-4 nM E40 for incubations at pH 4 to 5, or 4 nM and 7 nM for incubations at pH 6 or 7, respectively (E40 concentration was adjusted according to optimum pH). The digestive protease was maintained in the ratio 1:2 (w/w) versus E40.
Reactions (200 μl volume in 96-wells flat bottom ptiter plates) were protracted for 110 minutes at 37° C. Absorbance was monitored every 10 min for determining the enzymatic activity. Pepsin and trypsin without E40 were processed in the same way and tested in the same condition as reference control. Each analysis was carried out in duplicate.

T1 sequence (P00791 60-385): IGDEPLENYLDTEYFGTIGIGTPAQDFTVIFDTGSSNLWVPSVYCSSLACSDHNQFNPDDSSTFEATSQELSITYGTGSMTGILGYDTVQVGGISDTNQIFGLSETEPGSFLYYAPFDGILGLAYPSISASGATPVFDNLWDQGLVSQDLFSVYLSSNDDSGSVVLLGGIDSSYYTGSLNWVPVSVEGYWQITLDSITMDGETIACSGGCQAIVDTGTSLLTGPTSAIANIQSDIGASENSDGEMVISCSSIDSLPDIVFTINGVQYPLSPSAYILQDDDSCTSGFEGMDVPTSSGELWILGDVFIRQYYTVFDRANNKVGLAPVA

B1: E40: Actinoallomurus endopeptidase with glutenase activity, sequence comprising SEQ ID NO: 1; recombinant histidine-tagged form SEQ ID NO: 2 from S. lividans (protein)
chain: AAPSGLSPANLQSAYKLPSSTAGSGQTVAIVDAYDAPTAEADLNVYRSQFGLGACTTANGCFKKVDQNGGTSYPRKDGGWAQEISLDLDMVSAVCPNCKIVLVEAKTNSFANLGTAENTAASLANVISNSYGGSDASDASYGSYYNHPGKAITVSSGDAGYGVEYPASSHYVTAVGGTSLRTASTSRGWSETAWSGAGSGCSAYNTALSGQSGLTGCSRRAVADVSAVADPATGVAVYDSTAYQGQSGWMVFGGTSVAAPIIGGVYGLAANAASIDNNYPYAHTSSLFDVTSGSNGTCTTTKWCTAGTGWDGPTGLGTPNGTGAFGHHHHHH
modifications: Actinoallomurus
peaks assigned to gliadins after 30 min (gliadin): markedly reduced | gluten content (Elisa-G12) ([1]; sample A: E40 (1 h) (pH 4)): 1.72 ppm (ng/mL) | gluten content (Elisa-G12) ([1]; sample B: E40 (2 h) (pH 4)): 2.26 ppm (ng/mL) | gluten content (Elisa-G12) ([1]; sample C: E40 + Pepsin (1 h) (pH 4)): 5.23 ppm (ng/mL) | gluten content (Elisa-G12) ([1]; sample D: E40 + Pepsin (2 h) (pH 4)): 5.42 ppm (ng/mL) | gluten content (Elisa-G12) ([1]; sample E: E40 + Pepsin (2 h) (pH 4), Trypsin + Chymotrypsin (2 h) (pH 6)): 4.09 ppm (ng/mL) | gluten content (Elisa-G12) ([1]; sample F: E40 + Pepsin (2 h) (pH 4), Trypsin + Chymotrypsin (4 h) (pH 6)): 2.68 ppm (ng/mL) | gluten content (Elisa-G12) ([1]; sample G: E40 + Pepsin (1 h) (pH 4), Trypsin + Chymotrypsin (2 h) (pH 6)): 1.68 ppm (ng/mL) | gluten content (Elisa-G12) ([1]; sample H: E40 + Pepsin (1 h) (pH 4), Trypsin + Chymotrypsin (4 h) (pH 6)): 2.05 ppm (ng/mL) | gluten content of E40 digested samples ([1]; samples from A to H): below 20 ppm | gluten content of bread digest (Elisa-R5) (gluten of bread; E40 added at beginning of simulated gastric phase): 16.2 ppm (ng/mL) | gluten content of digested bread including E40 (gluten of bread; oral-gastric digest): < 20 ppm | E40 cleaving activity in presence of pepsin (pepsin): unaffected; also recorded: slightly enhanced
